The source of these data is patent publication US20250382363A1 (NUMAB THERAPEUTICS, published 2025).

B1: PRO2992 (scFv 54-21-H03-sc01_(T146A)) (scFv)
scFv: DIQMTQSPSSLSASVGDRVTITCQASESIYSSLAWYQQKPGKAPKLLIYLASTLASGVPSRFSGSGSGTDFTLTISSLQPEDFATYYCQSTDYTTSTHRNSFGTGTKVTVLGGGGGSGGGGSGGGGSGGGGSEVQLVESGGGLVQPGGSLRLSCAASGFSFSTTYYMCWVRQAPGKGLEWIGCTNTASSVRTYYATWAKGRFTISRDNSKNTVYLQMNSLRAEDTAVYYCARDMGFADYALNLWGQGTLVAVSS
notes: PRO1922 variant; VH substitution, AHo numbering; also called PRO1922 T146A
B2: PRO3323 (scFv 54-21-H03-sc01_(L12A, T101Q, L144A, T146Q)) (scFv)
scFv: B1 scFv with L143A, T225Q, L249A, A251Q
notes: PRO1922 variant; VH substitutions, AHo numbering; also called PRO1922 L12A-T101Q-L144A-T146Q
B3: PRO3346 (scFv 54-21-H03-sc01_(T101S T146K)) (scFv)
scFv: B1 scFv with T225S, A251K
notes: PRO1922 variant; VH substitutions, AHo numbering; also called PRO1922 T101S-T146K
B4: PRO3318 (scFv 54-21-H03-sc01_(L12A, T101R, L144A, T146Q)) (scFv)
scFv: B1 scFv with L143A, T225R, L249A, A251Q
notes: PRO1922 variant; VH substitutions, AHo numbering; also called PRO1922 L12A-T101R-L144A-T146Q
B5: PRO3320 (scFv 54-21-H03-sc01_(L12A, T101S, L144K, T146Q)) (scFv)
scFv: B1 scFv with L143A, T225S, L249K, A251Q
notes: PRO1922 variant; VH substitutions, AHo numbering; also called PRO1922 L12A-T101S-L144K-T146Q
B6: PRO3326 (scFv 54-21-H03-sc01_(T101Q, T146Q)) (scFv)
scFv: B1 scFv with T225Q, A251Q
notes: PRO1922 variant; VH substitutions, AHo numbering; also called PRO1922 T101Q-T146Q
B7: PRO3347 (scFv 54-21-H03-sc01_(T101S, T146S)) (scFv)
scFv: B1 scFv with T225S, A251S
notes: PRO1922 variant; VH substitutions, AHo numbering; also called PRO1922 T101S-T146S
B8: PRO3329 (scFv 54-21-H03-sc01_(T101Q)) (scFv)
scFv: B1 scFv with T225Q, A251T
notes: PRO1922 variant; VH substitution, AHo numbering; also called PRO1922 T101Q
B9: PRO2993 (scFv 54-21-H03-sc01_(P15A)) (scFv)
scFv: B1 scFv with P146A, A251T
notes: PRO1922 variant; VH substitution, AHo numbering; also called PRO1922 P15A
B10: PRO3325 (scFv 54-21-H03-sc01_(T101S, T146R)) (scFv)
scFv: B1 scFv with T225S, A251R
notes: PRO1922 variant; VH substitutions, AHo numbering; also called PRO1922 T101S-T146R
B11: PRO3322 (scFv 54-21-H03-sc01_(L12R, T101R, L144A, T146Q)) (scFv)
scFv: B1 scFv with L143R, T225R, L249A, A251Q
notes: PRO1922 variant; VH substitutions, AHo numbering; also called PRO1922 L12R-T101R-L144A-T146Q
B12: PRO3349 (scFv 54-21-H03-sc01_(T101R, T146E)) (scFv)
scFv: B1 scFv with T225R, A251E
notes: PRO1922 variant; VH substitutions, AHo numbering; also called PRO1922 T101R-T146E
B13: PRO3344 (scFv 54-21-H03-sc01_(T101K, T146Q)) (scFv)
scFv: B1 scFv with T225K, A251Q
notes: PRO1922 variant; VH substitutions, AHo numbering; also called PRO1922 T101K-T146Q
B14: PRO3348 (scFv 54-21-H03-sc01_(T101K, T146D)) (scFv)
scFv: B1 scFv with T225K, A251D
notes: PRO1922 variant; VH substitutions, AHo numbering; also called PRO1922 T101K-T146D
B15: PRO3324 (scFv 54-21-H03-sc01_(T101R, T146Q)) (scFv)
scFv: B1 scFv with T225R, A251Q
notes: PRO1922 variant; VH substitutions, AHo numbering; also called PRO1922 T101R-T146Q
B16: PRO3319 (scFv 54-21-H03-sc01_(L12A, T101S, L144A, T146R)) (scFv)
scFv: B1 scFv with L143A, T225S, L249A, A251R
notes: PRO1922 variant; VH substitutions, AHo numbering; also called PRO1922 L12A-T101S-L144A-T146R
B17: PRO3345 (scFv 54-21-H03-sc01_(T101N, T146Q)) (scFv)
scFv: B1 scFv with T225N, A251Q
notes: PRO1922 variant; VH substitutions, AHo numbering; also called PRO1922 T101N-T146Q
B18: PRO3321 (scFv 54-21-H03-sc01_(L12R, T101S, L144A, T146Q)) (scFv)
scFv: B1 scFv with L143R, T225S, L249A, A251Q
notes: PRO1922 variant; VH substitutions, AHo numbering; also called PRO1922 L12R-T101S-L144A-T146Q
B19: PRO2994 (scFv 54-21-H03-sc01_(P48A)) (scFv)
scFv: B1 scFv with P174A, A251T
notes: PRO1922 variant; VH substitution, AHo numbering; also called PRO1922 P48A

Where a chain is given by its changes, count along the chain named. Names and notes keep the numbering of the source.

In the first experiment the target is T1, human a-Mesothelin (Acro Biosystems; MSN_H5223) (human, UniProt Q13421 296-580, limits assumed).
T1 construct: Bought protein immobilised on the SPR chip; Printed as 'a-Mesothelin' but used as the antigen for the anti-MSLN scFvs; also called Human MSLN; MSLN
T1 sequence (Q13421 other isoform, or with tags, fused parts or gaps limits assumed): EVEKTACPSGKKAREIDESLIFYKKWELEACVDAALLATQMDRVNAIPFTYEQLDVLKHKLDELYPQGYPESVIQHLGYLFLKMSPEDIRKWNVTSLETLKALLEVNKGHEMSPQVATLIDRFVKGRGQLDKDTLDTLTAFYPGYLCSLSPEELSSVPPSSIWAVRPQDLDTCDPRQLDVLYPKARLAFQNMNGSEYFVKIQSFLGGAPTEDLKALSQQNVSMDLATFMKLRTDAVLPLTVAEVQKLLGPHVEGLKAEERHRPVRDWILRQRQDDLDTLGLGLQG
As to the kind of experiment: SPR, mesothelin immobilised, scFv analyte, 1:1 fit. As for the experimental part: The mutation variants were then injected at concentrations of 10 nM, 2 nM and 0.4 nM over the ligand-immobilized and reference spots. The wild type variants were used as a control, while an empty spot was used as reference.
After each cycle with analyte, the surface was regenerated with a 3M MgCl₂ solution, thereby allowing the next analyte cycle to have only free ligand available. Binding affinity KD was globally calculated by the Bruker SPR software based on the binding association (kₒₙ) and dissociation (Koff) rate, by fitting a 1:1 Langmuir model to the curves obtained by the cycles with the three different concentrations of the analyte.
For orientation: In SPR one partner is held on a chip, and binding of the other changes the refractive index at the surface.
One may read the Kd as the equilibrium constant for the complex coming apart. Consider B1, for which binding was characterised by a dissociation constant (Kd) of 1.7 nM and the n-fold to wt is 0.9 fold.

In the case of B2, binding was characterised by a dissociation constant (Kd) of 1.7 nM and the n-fold to wt was found to be 0.9 fold.

Consider B3, for which the Kd worked out at 1.5 nM and the n-fold to wt turned out to be 0.8 fold.

As to B4, the Kd is 2.3 nM and the n-fold to wt was 1.3 fold.

Regarding B5, the Kd was 1.6 nM and the n-fold to wt turned out to be 0.9 fold.

Take B6: the Kd turned out to be 1.8 nM and the n-fold to wt is 1 fold.

Take B7: the dissociation constant (Kd) is 1.7 nM and the n-fold to wt came to 0.9 fold.

Consider B8, for which binding was characterised by a dissociation constant (Kd) of 1.6 nM and the n-fold to wt was 0.9 fold.

As for B9, the affinity, expressed as Kd, was 0.82 nM and the n-fold to wt came to 0.5 fold.

In the case of B10, binding was characterised by a dissociation constant (Kd) of 1.8 nM and the n-fold to wt was 1 fold.

On to B11, for which the Kd worked out at 2.1 nM and the n-fold to wt turned out to be 1.2 fold.

Regarding B12, the affinity, expressed as Kd, was 1.9 nM and the n-fold to wt came to 1.1 fold.

Consider B13, for which binding was characterised by a dissociation constant (Kd) of 1.6 nM and the n-fold to wt came to 0.9 fold.

As to B14, the dissociation constant Kd amounted to 2.5 nM and the n-fold to wt was found to be 1.4 fold.

For B15, the Kd was found to be 1.9 nM and the n-fold to wt stood at 1.1 fold.

For B16, the Kd was found to be 2.5 nM and the n-fold to wt was 1.4 fold.

B17: the Kd was determined as 1.5 nM and the n-fold to wt came out at 0.8 fold.

B18: the equilibrium dissociation constant (Kd) was determined as 1.7 nM and the n-fold to wt amounted to 0.9 fold.

With B19, the Kd was 1.5 nM and the n-fold to wt worked out at 0.8 fold.

The target of the next experiment is pre-existing anti-drug antibodies (ADA) present in human sera. In words: pre-existing ADA ELISA, scFv coated, human sera unspiked vs spiked. Background: An ELISA detects its analyte on a solid surface through an enzyme-linked reagent.
For the molecule B1, the Mean No of serum samples >30% inhibition (30% CCP) with SCP (serum samples) was found to be 3 and the No of serum samples >30% inhibition (30% CCP) without SCP (serum samples) came out at 4.

Take B2: the Mean No of serum samples >30% inhibition (30% CCP) with SCP (serum samples) came out at 0 and the No of serum samples >30% inhibition (30% CCP) without SCP (serum samples) worked out at 0.

In the case of B3, the Mean No of serum samples >30% inhibition (30% CCP) with SCP (serum samples) is 0 and the No of serum samples >30% inhibition (30% CCP) without SCP (serum samples) is 0.

Turning to B4, the Mean No of serum samples >30% inhibition (30% CCP) with SCP (serum samples) was found to be 0 and the No of serum samples >30% inhibition (30% CCP) without SCP (serum samples) came to 0.

In turn, B5 had a Mean No of serum samples >30% inhibition (30% CCP) with SCP (serum samples) of 0 and a No of serum samples >30% inhibition (30% CCP) without SCP (serum samples) of 0.

In turn, B6 yielded a Mean No of serum samples >30% inhibition (30% CCP) with SCP (serum samples) of 0 and a No of serum samples >30% inhibition (30% CCP) without SCP (serum samples) of 0.

On to B7, for which the Mean No of serum samples >30% inhibition (30% CCP) with SCP (serum samples) is 3 and the No of serum samples >30% inhibition (30% CCP) without SCP (serum samples) came out at 3.

As to B8, the Mean No of serum samples >30% inhibition (30% CCP) with SCP (serum samples) came to 1 and the No of serum samples >30% inhibition (30% CCP) without SCP (serum samples) was found to be 2.

For B9, the Mean No of serum samples >30% inhibition (30% CCP) with SCP (serum samples) is 2 and the No of serum samples >30% inhibition (30% CCP) without SCP (serum samples) is 3.

B10 came in with a Mean No of serum samples >30% inhibition (30% CCP) with SCP (serum samples) of 1 and a No of serum samples >30% inhibition (30% CCP) without SCP (serum samples) of 4.

The molecule B11 showed a Mean No of serum samples >30% inhibition (30% CCP) with SCP (serum samples) of 0 and a No of serum samples >30% inhibition (30% CCP) without SCP (serum samples) of 0.

Molecule B12 returned a Mean No of serum samples >30% inhibition (30% CCP) with SCP (serum samples) of 0 and a No of serum samples >30% inhibition (30% CCP) without SCP (serum samples) of 0.

Molecule B13 returned a Mean No of serum samples >30% inhibition (30% CCP) with SCP (serum samples) of 0 and a No of serum samples >30% inhibition (30% CCP) without SCP (serum samples) of 0.

Molecule B14 yielded a Mean No of serum samples >30% inhibition (30% CCP) with SCP (serum samples) of 0 and a No of serum samples >30% inhibition (30% CCP) without SCP (serum samples) of 0.

B15: the Mean No of serum samples >30% inhibition (30% CCP) with SCP (serum samples) stood at 1 and the No of serum samples >30% inhibition (30% CCP) without SCP (serum samples) turned out to be 2.

B16 showed a Mean No of serum samples >30% inhibition (30% CCP) with SCP (serum samples) of 0 and a No of serum samples >30% inhibition (30% CCP) without SCP (serum samples) of 0.

On to B17, for which the Mean No of serum samples >30% inhibition (30% CCP) with SCP (serum samples) is 0 and the No of serum samples >30% inhibition (30% CCP) without SCP (serum samples) worked out at 0.

B18 showed a Mean No of serum samples >30% inhibition (30% CCP) with SCP (serum samples) of 0 and a No of serum samples >30% inhibition (30% CCP) without SCP (serum samples) of 0.

In turn, B19 gave a Mean No of serum samples >30% inhibition (30% CCP) with SCP (serum samples) of 2 and a No of serum samples >30% inhibition (30% CCP) without SCP (serum samples) of 6.
